Measured values reported in the RNAGym collection of RNA variant scans (doi:10.7554/elife.80360).

B1: HDV Ribozyme (parent)
chain: GGCCGGCAUGGUCCCAGCCUCCUCGCUGGCGCCGGCUGGGCAACAUUCCGAGGGGACCGUCCCCUCGGUAAUGGCGAAUGGGACCCA

Variants of: B1
Assay: self-cleavage, relative activity (ratio to wild type); higher = more cleavage; co-transcriptional

Compared with U12A C57A, C14G G59U is higher in self-cleavage: 0.256 for the first, 0.745 for the second.

First: C33U A42U
Second: G10U C33A
The self-cleavage of the first is higher: 0.345 for the first, 0.113 for the second.

First: G29A C30G
Second: U37G A42U
The self-cleavage of the first is higher: 0.0415 for the first, 0 for the second.

First: G28U G67U
Second: G59U A78G
The self-cleavage of the first is lower: 0.137 for the first, 0.904 for the second.

Compared with C30U U69G, U27C U72C is lower in self-cleavage: 0.554 for the first, 0.166 for the second.

Going from G52U U65G to G1C C7U, the self-cleavage falls from 0.767 to 0.0475.

Compared with G29A G34U, G39A C49A is higher in self-cleavage: 0.0601 for the first, 0.573 for the second.

Going from C26U C49G to C24A C75U, the self-cleavage falls from 0.973 to 0.169.

Compared with G34U C57A, A56U C84G is higher in self-cleavage: 0.114 for the first, 0.697 for the second.

First: C18U A43G
Second: C30A G31A
The self-cleavage of the first is higher: 0.17 for the first, 0.0733 for the second.

Compared with C32G G82C, G2U C3A is lower in self-cleavage: 0.0652 for the first, 0.0484 for the second.

First: C36G C85G
Second: A51C G82U
The self-cleavage of the first is lower: 0.161 for the first, 0.386 for the second.

First: G5A C84G
Second: C44A C64U
The self-cleavage of the first is lower: 0.0875 for the first, 0.665 for the second.

First: C41A C58G
Second: C30G G68C
The self-cleavage of the first is higher: 0.935 for the first, 0.0906 for the second.

Going from U20A U79A to G68A A83C, the self-cleavage rises from 0.0573 to 0.519.

Compared with G25U G81U, U37A A83C is lower in self-cleavage: 0.138 for the first, 0.0378 for the second.

Compared with G2A C24A, G28A C30G is higher in self-cleavage: 0.0815 for the first, 0.117 for the second.

Going from C4U A16G to C3A G35C, the self-cleavage falls from 0.862 to 0.604.

Going from G31A C86U to U12C G80C, the self-cleavage falls from 0.69 to 0.104.

Going from G54C C63A to G39A A45G, the self-cleavage falls from 1.02 to 0.629.

First: C19U U27C
Second: G39C U69A
The self-cleavage of the first is lower: 0.135 for the first, 0.17 for the second.

Compared with U27A G73A, C13G C21U is lower in self-cleavage: 0.391 for the first, 0.141 for the second.

Compared with G5A A87C, C62G A87U is higher in self-cleavage: 0.124 for the first, 0.716 for the second.

Going from C4U G59C to U9C, the self-cleavage rises from 0.81 to 1.04.

First: A42U G67C
Second: A16G U47A
The self-cleavage of the first is lower: 0.415 for the first, 1.16 for the second.

Compared with G6A, C4A C58A is lower in self-cleavage: 0.726 for the first, 0.348 for the second.

Going from C48A A78C to A56G A70C, the self-cleavage rises from 0.169 to 0.935.

Compared with C4A A87G, C4A A87U is higher in self-cleavage: 0.233 for the first, 0.39 for the second.

Compared with C32G A45U, C14U A83C is higher in self-cleavage: 0.142 for the first, 0.499 for the second.

Going from C4U U79C to G53C U60C, the self-cleavage rises from 0.136 to 1.

Going from C13G U23C to C22G G35A, the self-cleavage rises from 0 to 0.0615.

First: G35A C41A
Second: C7G G39A
The self-cleavage of the first is higher: 0.562 for the first, 0.147 for the second.

Compared with C33A C41G, G34U C85A is higher in self-cleavage: 0.104 for the first, 0.164 for the second.

Going from A51C G76C to C32U G74U, the self-cleavage falls from 0.982 to 0.176.

Going from A45G G54A to U72C C84G, the self-cleavage falls from 0.814 to 0.369.

Going from C13G A56C to A45G A77U, the self-cleavage rises from 0.0489 to 0.482.

Going from G59C G67C to U79A C86G, the self-cleavage falls from 0.929 to 0.81.

Going from C30U G55C to G67C G76A, the self-cleavage rises from 0.523 to 1.11.

Going from C49A A71C to G53C C64U, the self-cleavage rises from 0.643 to 0.703.

Going from U27C A43U to C64U C66A, the self-cleavage rises from 0.237 to 0.95.

First: U23C A51G
Second: A71C G76U
The self-cleavage of the first is higher: 0.978 for the first, 0.91 for the second.

First: G10C A78U
Second: A8G C18G
The self-cleavage of the first is higher: 0.222 for the first, 0 for the second.

Going from C3G G53U to C24G G54C, the self-cleavage falls from 0.549 to 0.0511.

Compared with G55A G76U, G34A C62U is lower in self-cleavage: 0.918 for the first, 0.106 for the second.

Going from C32G G80A to A42C G68U, the self-cleavage rises from 0.0764 to 0.128.

Going from C48A C63G to C18G G73U, the self-cleavage falls from 0.73 to 0.119.

Going from C24U A83U to C15U A77C, the self-cleavage falls from 0.198 to 0.185.

Going from G5U G53U to C44A A71C, the self-cleavage rises from 0.268 to 0.332.

Compared with G17U C33G, U20C C86U is higher in self-cleavage: 0.0831 for the first, 0.138 for the second.

Compared with G11A C32G, C3G G81C is higher in self-cleavage: 0.0683 for the first, 0.0831 for the second.

First: G76U A83G
Second: G2C G38U
The self-cleavage of the first is higher: 0.787 for the first, 0.0764 for the second.

Compared with C13A G59C, C13G G59A is lower in self-cleavage: 0.237 for the first, 0.148 for the second.

First: G55A C58G
Second: C13A C14U
The self-cleavage of the first is higher: 0.941 for the first, 0.18 for the second.

Compared with C64U U79G, G11A G40U is lower in self-cleavage: 0.847 for the first, 0.458 for the second.

Compared with G5C C57U, C49U C58U is higher in self-cleavage: 0.185 for the first, 0.991 for the second.

Compared with C32G C63G, C7A C26G is higher in self-cleavage: 0.0831 for the first, 0.554 for the second.

Going from A42U G54U to C36A U46C, the self-cleavage falls from 0.465 to 0.166.

Compared with U20C C75A, C36G G76U is higher in self-cleavage: 0.0594 for the first, 0.277 for the second.

First: G5A G67U
Second: G76C C85A
The self-cleavage of the first is lower: 0.17 for the first, 0.873 for the second.

First: C24G U79C
Second: U12G U23G
The self-cleavage of the first is lower: 0.165 for the first, 0.256 for the second.

First: C49A A51C
Second: G28A G34A
The self-cleavage of the first is higher: 0.297 for the first, 0.175 for the second.

First: G54C G74A
Second: G5U A43C
The self-cleavage of the first is higher: 0.314 for the first, 0 for the second.

Compared with G11C G34C, C44U A70G is higher in self-cleavage: 0.0852 for the first, 0.793 for the second.

Going from G5U G73C to C61A G81C, the self-cleavage rises from 0.249 to 0.287.

Going from A16C C49U to C21G C61U, the self-cleavage falls from 0.617 to 0.032.

First: C14A U47C
Second: C33U G35U
The self-cleavage of the first is higher: 0.415 for the first, 0.383 for the second.

Going from G17U U79C to C21A G73U, the self-cleavage falls from 0.584 to 0.0528.

Compared with A8C C85U, G11A G50A is lower in self-cleavage: 0.886 for the first, 0.366 for the second.

Compared with G5U A77C, G34U G59A is higher in self-cleavage: 0.192 for the first, 0.203 for the second.

Going from G53C G68A to C3U G35C, the self-cleavage falls from 0.577 to 0.49.

First: U20G C66G
Second: G50C G54U
The self-cleavage of the first is higher: 0.511 for the first, 0.374 for the second.

Going from C19A C48A to G39C G54A, the self-cleavage rises from 0.0934 to 0.188.

Going from C19A G50C to G11U G81U, the self-cleavage rises from 0.0923 to 0.138.

Going from U72A to G54U C57A, the self-cleavage rises from 0.698 to 0.997.

Compared with C62A G74A, G5A G38U is lower in self-cleavage: 0.619 for the first, 0.0804 for the second.

Going from U23C G35C to G2U C13U, the self-cleavage falls from 0.115 to 0.

First: C41G C85U
Second: C32G G38A
The self-cleavage of the first is higher: 0.629 for the first, 0.0831 for the second.

Going from G50A C86G to U9C C64A, the self-cleavage falls from 0.884 to 0.831.

Going from G2U C85G to C33A C66G, the self-cleavage rises from 0.0966 to 0.302.

First: C41A U65A
Second: C3G G67U
The self-cleavage of the first is higher: 0.914 for the first, 0.626 for the second.

Compared with C19A G59U, C33A A83C is lower in self-cleavage: 0.134 for the first, 0.0449 for the second.

Going from C4A G29C to C21U C24G, the self-cleavage rises from 0.0369 to 0.0545.

Compared with A70C C86U, G2C C66U is lower in self-cleavage: 0.852 for the first, 0.0373 for the second.

C24U G39U gave a self-cleavage of 0.111.
